Assay results from patent US8263074B2, “Fibroblast growth factor receptor-1 inhibitors and methods of treatment thereof” (ImClone LLC, priority 2003, dated 2012).
Like-named read-outs stand apart in the source and are kept apart here.

Legend:
FGFR-1b = target: T1, FGFR-1b (Homo sapiens, UniProt P11362); assay: BiaCore binding kinetics; conditions: kinetic analyses
T1 construct: purchased R&D Systems

FGFR-1c = target: T2, FGFR-1c (Homo sapiens, UniProt P11362); assay: BiaCore binding kinetics; conditions: kinetic analyses; read-out: KD, FGFR-1c
T2 construct: purchased R&D Systems

FGFR-2b = target: T3, FGFR-2b (Homo sapiens, UniProt P21802); assay: BiaCore binding kinetics; conditions: BiaCore kinetic analysis
T3 construct: purchased R&D Systems

FGFR-2c = target: T4, FGFR-2c (Homo sapiens, UniProt P21802); assay: BiaCore binding kinetics; conditions: BiaCore kinetic analysis
T4 construct: purchased R&D Systems

FGFR-3b = target: T5, FGFR-3b (Homo sapiens, UniProt P22607); assay: BiaCore binding kinetics; conditions: BiaCore kinetic analysis
T5 construct: purchased R&D Systems

FGFR-3c = target: T6, FGFR-3c (Homo sapiens, UniProt P22607); assay: BiaCore binding kinetics; conditions: BiaCore kinetic analysis
T6 construct: purchased R&D Systems

FGFR-4 = target: T7, FGFR-4 (Homo sapiens, UniProt P22455); assay: ELISA binding assay
T7 construct: purchased R&D Systems
Description: (§1) Recombinant FGFRs (R&D systems) at a concentration of 1 μg/ml in PBS were coated on 96-well plates at room temperature for 2 hrs. The plates were washed 3 times with 0.2% Tween20/PBS, and blocked with 5% milk/PBS for 2 hrs before use. FR1-H7 or FR1-A1 was added to the plate and serially diluted in 0.2% Tween20/PBS. The plate was incubated at room temperature for 2 more hrs. The captured antibodies were detected using an anti-human light chain monoclonal antibody conjugated with […] (Pierce Biotechnology, Rockford, Ill.) solution prepared according to supplier's instructions.

other FGFRs = assay: ELISA binding assay
Description: as §1

FGFR-1 = target: T8, FGFR-1 (Homo sapiens, UniProt P11362); assay: Phosphorylation assay in FGFR-1 expressing L6 cells (western blot); type: cell-based; conditions: anti-phospho-tyrosine western blot
T8 construct: expressed in transfected cells; host or cells: L6 (ATCC), pBABE retroviral vector
Description: FGFR-1 expressing L6 cells were cultured in 10% FBS, DMEM, in a 24-well tissue culture plate till confluency. Cells were Serum starved in 5 μg/ml heparin, 0.1% FBS, DMEM, for 8-24 hrs. Either FR1-H7 or FR1-A1 was added to the media and allowed to bind with the cell surface receptors at 37° C. for 1 hr. Cells were then stimulated with 20 ng/ml FGFs at 37° C. for 10 min before they were lyzed using ice-cold lysis buffer for 30 min. Cell lysate was subjected to SDS-PAGE followed by western blot. Membranes were probed with anti-phospho-tyrosine antibody (Cell Signaling Technology, Inc., Beverly, Mass.) for detection of phosphorylated FGFR-1 receptors according to supplier's instructions.
The phosphorylation assay for small molecules is essentially the same as the phosphorylation assay described in Examples 7 and 15 and Phosphorylation Assay, except that small molecule compounds was used instead of FGFR-1 antibodies in all occasions. […] Equal amount of cell lysates were applied to each sample lane. Receptor auto-phosphorylation was probed using anti-phospho-tyrosine antibody as described in the original patent.

[1] = system: Human astrocytoma G18 cells; assay: Mitogenesis assay (3H-thymidine); type: cell-based; conditions: FGF-2 stimulation
Description: Human astrocytoma G18 cells were seeded in 96-well tissue culture plates at a concentration of 5×10^4 cells/ml. After attachment, cells were quiesced for 24 hrs in RPMI media (Invitrogen) containing 0.1% FBS and 5 μg/ml heparin. Antibodies were serially diluted, added to the wells, and incubated with the cells at 37° C. for 1 hr. Recombinant FGF-2 was then added to a final concentration of 5 ng/ml. Cells were cultured in an incubator at 37° C. with 5% CO2. Cell growth was determined 24 hrs later by monitoring ^3H-thymidine incorporation as described previously.

[2] = Repeated-dose study in female athymic nude mice: body weight, food intake, rearing, blood glucose; type: in vivo; conditions: for body weight loss compared to the control: day 5 after two treatments; for reduction of non-fast food intake: between first and second treatments
Description: Female athymic nude mice (Cr1:NU/NU-nuBR, Charles River Laboratories, Wilmington, Mass.) were housed 4-5 per cage. Mice were given autoclaved food (Lab Diet #5001, PMI Feeds Inc., St. Louis, Mo.) and water ad libitum. All animal use in this study was conducted in compliance with approved institutional animal care and use protocols, and according to NIH guidelines (Guide for the Care and Use of Laboratory Animals, NIH publication no. 86-23, 1985).
In one assay, mice were injected intraperitoneally (i.p.) with FR1-H7 at 0.19, 1.9, and 19 mg/kg body weight (n=5 per group). In another assay, mice were injected subcutaneously (s.c.) with the antibody, at 0.4, 4, and 40 mg/kg body weight. In control arms, mice were treated with saline i.p. or s.c. In addition, one group of mice was left untreated (n=4). All treatments were given at a volume of 10 μl/g body weight in Saline. Treatments were started on a Wednesday (Day 0) with additional treatments on the following Friday, Monday, Wednesday, and Friday. After this 9-day treatment period mice received no additional treatments.
Alternatively, female athymic nude mice were injected (i.p.) with saline, 2 mg/kg, or 20 mg/kg FR1-A1 on a Monday (Day 0) and Wednesday. Body weights were measured before the first injection, and on Day 2 and Day 5. Food intake per group was measured 2 days after the first injection.
The body weights of all animals were measured 3 times/week. Food consumption, behavior, and serum glucose were evaluated as follows. Food Intake Measurement: Prior to the treatment on Day 2 mice were placed in a new cage and the weight of the food container in the cage top was weighed. Prior to the treatment on Day 5 the weight of the food container was measured again. The difference in the Day 2 to Day 5 food container weight was divided by the number of mice per cage and the number of days between the measurements to give a food intake per mouse per 24 hrs. Activity Measurement: On Day 12, 3 days after the final treatment, mice were placed individually into a new cage and the number of rearings was counted over a 1 min period. Blood Glucose Measurement On Day 16, 7 days after the final treatment, non-fasted blood glucose was measured in blood collected from the tip of the tail using an Ascensia Elite XL blood glucose meter (glucose oxidase method, Bayer, Pittsburg, Pa.).

FGFR-1(IIIc) [3] = target: T9, FGFR-1(IIIc) (Homo sapiens, UniProt P11362); assay: ELISA binding assay; set-up: purchased R&D Systems
Description: as §1

FGFR-1(IIIc) [4] = target: T9, FGFR-1(IIIc); assay: ELISA blocking assay (receptor binding to immobilized FGF); set-up: purchased R&D Systems
Description: Recombinant FGFs (R&D systems, Minneapolis, Minn.) were coated on Immulon® 2B microtiter plates (ThermoLab Systems, Franklin, Mass.) at concentrations of 0.5-2 μg/ml for 2 hrs. The plates were then washed with 0.2% Tween20/PBS, and blocked with 5% milk/PBS for 2 hrs before use. Phage or antibody was serially diluted with 5 μg/ml heparin (Sigma, St Louis, Mo.), 5% milk, PBS. Recombinant FGFR-1 (R&D Systems) was then added to a final concentration of 1 μg/ml. The mixture was incubated at room temperature for 1 hr before transfer to the FGF-2 coated plates, and incubated at room temperature for an additional 2 hrs. Plates were then washed 3 times with 0.2% Tween20/PBS. The bound receptors were detected using an anti-human Fc monoclonal antibody coupled with HRP (Pierce Biotechnology Inc., Rockford, Ill.) solution prepared according to supplier's instructions. Data were presented as % inhibition of ligand-receptor binding of the controls.

T9 sequence (P11362 22-822): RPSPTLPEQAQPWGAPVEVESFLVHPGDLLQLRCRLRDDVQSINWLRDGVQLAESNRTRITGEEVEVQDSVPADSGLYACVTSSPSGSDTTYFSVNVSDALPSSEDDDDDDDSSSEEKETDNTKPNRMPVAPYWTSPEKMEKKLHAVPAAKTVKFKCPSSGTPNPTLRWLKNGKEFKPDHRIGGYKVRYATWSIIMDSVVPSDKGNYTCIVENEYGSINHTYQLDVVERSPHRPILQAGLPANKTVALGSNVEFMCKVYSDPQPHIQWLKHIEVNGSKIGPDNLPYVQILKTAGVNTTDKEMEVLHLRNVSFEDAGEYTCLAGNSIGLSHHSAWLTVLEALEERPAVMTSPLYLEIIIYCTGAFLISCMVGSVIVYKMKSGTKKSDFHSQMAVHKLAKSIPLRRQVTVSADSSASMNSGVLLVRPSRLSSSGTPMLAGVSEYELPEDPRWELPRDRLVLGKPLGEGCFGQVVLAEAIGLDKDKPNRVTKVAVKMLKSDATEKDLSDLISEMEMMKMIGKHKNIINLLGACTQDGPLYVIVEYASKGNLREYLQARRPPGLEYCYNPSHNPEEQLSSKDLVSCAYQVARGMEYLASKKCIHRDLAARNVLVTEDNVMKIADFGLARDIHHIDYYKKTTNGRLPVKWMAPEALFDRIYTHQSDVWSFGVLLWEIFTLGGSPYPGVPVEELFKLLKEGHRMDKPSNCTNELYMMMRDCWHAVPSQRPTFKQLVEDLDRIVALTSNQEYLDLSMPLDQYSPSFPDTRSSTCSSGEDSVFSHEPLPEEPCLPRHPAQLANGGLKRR
T8 sequence (P11362 22-822): as above
T3 sequence (P21802 22-822 isoform P21802-3 limits assumed): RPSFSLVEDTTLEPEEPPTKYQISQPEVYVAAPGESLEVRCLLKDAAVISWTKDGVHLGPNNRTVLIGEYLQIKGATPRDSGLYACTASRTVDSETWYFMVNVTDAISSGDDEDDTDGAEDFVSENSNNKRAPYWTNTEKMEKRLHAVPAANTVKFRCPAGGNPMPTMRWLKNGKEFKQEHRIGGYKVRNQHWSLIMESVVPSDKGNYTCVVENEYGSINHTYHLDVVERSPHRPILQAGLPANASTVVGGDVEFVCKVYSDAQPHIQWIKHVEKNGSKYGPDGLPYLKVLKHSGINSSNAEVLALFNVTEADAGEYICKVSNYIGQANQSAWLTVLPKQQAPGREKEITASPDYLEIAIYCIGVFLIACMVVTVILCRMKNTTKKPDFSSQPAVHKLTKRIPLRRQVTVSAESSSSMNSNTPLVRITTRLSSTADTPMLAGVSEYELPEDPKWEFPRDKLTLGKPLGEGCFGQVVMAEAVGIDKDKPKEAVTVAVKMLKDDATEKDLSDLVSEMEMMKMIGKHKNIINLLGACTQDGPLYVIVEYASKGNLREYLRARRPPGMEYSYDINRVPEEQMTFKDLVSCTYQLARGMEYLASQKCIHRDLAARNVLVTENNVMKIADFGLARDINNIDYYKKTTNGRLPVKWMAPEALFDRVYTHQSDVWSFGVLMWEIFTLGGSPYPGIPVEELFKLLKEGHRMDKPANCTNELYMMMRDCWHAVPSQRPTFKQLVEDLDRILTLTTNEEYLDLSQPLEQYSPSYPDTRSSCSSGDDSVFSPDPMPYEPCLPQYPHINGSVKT
T7 sequence (P22455 22-802): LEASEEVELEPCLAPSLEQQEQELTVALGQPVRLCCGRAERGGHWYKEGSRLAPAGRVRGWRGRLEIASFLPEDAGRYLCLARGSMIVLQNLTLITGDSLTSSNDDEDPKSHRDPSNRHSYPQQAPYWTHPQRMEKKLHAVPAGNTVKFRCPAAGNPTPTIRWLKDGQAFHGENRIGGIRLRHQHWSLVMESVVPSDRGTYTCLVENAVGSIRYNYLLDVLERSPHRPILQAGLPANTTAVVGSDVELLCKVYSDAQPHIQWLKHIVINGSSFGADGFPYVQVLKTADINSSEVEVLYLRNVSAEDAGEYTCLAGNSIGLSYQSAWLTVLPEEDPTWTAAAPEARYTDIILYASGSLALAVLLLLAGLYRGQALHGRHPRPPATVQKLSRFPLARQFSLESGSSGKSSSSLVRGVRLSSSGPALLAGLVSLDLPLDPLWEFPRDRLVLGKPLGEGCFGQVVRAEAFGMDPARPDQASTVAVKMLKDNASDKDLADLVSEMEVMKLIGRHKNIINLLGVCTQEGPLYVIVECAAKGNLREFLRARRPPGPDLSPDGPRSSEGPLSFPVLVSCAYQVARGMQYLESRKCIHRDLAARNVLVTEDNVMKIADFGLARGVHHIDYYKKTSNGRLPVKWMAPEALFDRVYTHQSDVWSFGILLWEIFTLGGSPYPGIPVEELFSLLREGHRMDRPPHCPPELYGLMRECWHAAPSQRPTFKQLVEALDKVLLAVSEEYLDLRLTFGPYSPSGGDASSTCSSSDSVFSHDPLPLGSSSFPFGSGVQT
T4 sequence (P21802 22-821): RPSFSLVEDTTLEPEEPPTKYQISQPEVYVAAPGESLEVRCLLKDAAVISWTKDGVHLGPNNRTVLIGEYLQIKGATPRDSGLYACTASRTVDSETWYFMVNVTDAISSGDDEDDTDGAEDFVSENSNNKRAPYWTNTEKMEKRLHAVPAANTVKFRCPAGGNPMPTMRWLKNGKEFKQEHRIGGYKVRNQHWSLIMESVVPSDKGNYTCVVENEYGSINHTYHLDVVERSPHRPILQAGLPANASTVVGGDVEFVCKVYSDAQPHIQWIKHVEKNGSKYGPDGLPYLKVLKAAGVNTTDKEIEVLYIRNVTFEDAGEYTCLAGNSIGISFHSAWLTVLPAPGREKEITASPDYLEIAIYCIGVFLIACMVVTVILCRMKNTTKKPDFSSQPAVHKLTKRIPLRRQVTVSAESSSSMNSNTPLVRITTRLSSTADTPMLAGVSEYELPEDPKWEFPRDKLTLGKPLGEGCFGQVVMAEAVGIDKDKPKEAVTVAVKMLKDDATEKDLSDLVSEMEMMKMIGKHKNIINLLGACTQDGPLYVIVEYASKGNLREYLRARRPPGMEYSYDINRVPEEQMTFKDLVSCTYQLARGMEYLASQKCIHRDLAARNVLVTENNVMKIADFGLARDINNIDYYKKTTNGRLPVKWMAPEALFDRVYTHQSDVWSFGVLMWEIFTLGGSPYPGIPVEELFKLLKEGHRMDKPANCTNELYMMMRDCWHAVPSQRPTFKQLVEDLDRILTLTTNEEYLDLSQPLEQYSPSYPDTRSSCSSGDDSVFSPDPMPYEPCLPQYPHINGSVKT
T2 sequence (P11362 22-822): as the sequence (P11362 22-822) above
T6 sequence (P22607 23-806): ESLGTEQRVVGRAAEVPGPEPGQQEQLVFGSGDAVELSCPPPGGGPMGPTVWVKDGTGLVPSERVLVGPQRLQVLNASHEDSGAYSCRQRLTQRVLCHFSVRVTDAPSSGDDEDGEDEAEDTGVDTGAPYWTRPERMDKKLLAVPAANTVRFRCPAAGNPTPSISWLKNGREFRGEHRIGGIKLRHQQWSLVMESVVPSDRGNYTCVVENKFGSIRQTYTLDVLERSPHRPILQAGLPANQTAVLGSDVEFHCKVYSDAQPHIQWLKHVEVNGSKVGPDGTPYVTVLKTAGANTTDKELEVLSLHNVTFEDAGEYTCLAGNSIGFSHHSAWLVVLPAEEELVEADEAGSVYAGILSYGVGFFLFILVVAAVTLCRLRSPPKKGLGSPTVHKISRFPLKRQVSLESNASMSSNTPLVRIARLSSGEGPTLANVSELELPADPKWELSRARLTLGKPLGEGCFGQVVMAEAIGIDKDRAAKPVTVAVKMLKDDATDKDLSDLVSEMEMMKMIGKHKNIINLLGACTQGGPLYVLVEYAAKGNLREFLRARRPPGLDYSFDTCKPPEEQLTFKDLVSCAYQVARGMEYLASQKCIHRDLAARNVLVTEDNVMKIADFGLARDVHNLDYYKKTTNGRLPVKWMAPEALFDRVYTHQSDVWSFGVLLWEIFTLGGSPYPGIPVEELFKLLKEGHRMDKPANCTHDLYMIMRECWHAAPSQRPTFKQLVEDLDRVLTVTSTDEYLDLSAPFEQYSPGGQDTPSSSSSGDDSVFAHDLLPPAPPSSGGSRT
T5 sequence (P22607 23-808 isoform P22607-2 limits assumed): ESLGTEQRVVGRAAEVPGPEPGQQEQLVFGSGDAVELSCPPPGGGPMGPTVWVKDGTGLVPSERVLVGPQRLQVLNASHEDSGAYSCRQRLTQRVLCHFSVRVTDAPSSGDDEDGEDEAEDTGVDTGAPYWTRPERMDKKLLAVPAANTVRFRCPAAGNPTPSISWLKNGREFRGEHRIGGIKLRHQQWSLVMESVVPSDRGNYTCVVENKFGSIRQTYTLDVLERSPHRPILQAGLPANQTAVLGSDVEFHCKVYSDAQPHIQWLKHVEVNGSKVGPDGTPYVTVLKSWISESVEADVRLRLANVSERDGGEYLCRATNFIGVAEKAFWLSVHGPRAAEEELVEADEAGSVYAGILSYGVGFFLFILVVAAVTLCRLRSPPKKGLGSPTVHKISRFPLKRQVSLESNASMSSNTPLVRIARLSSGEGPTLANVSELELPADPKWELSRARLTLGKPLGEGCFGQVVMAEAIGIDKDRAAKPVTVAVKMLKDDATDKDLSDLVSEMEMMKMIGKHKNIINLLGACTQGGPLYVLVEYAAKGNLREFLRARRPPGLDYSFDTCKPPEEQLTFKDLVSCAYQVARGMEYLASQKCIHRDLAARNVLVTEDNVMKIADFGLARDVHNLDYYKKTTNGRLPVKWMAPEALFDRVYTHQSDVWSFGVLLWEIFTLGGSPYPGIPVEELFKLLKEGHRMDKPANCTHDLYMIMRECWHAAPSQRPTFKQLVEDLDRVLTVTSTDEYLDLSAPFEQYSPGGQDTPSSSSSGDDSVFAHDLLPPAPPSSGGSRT

- Kd (FGFR-1b): > 10000 nM
- Kd (FGFR-1c): 0.7 nM
- Kd (FGFR-2b): > 10000 nM
- Kd (FGFR-2c): > 10000 nM
- Kd (FGFR-3b): > 10000 nM
- Kd (FGFR-3c): > 10000 nM
- binding to FGFR-4 (FGFR-4): moderate affinity
- binding to the other FGFRs (other FGFRs): little binding
- inhibition of ligand (FGF) mediated receptor phosphorylation (FGFR-1; antibody): significantly inhibits
- receptor activation by the antibody by itself (FGFR-1; no ligand): does not activated the receptor
- binding to FGFR-1(IIIc) (FGFR-1(IIIc) [3]): strong binding affinity
- IC50 (FGFR-1(IIIc) [4]; immobilized FGF-1, read-out: IC50, blocking FGFR-1(IIIc) binding to FGF-1): ~5 nM
- IC50 (FGFR-1(IIIc) [4]; immobilized FGF-2, read-out: IC50, blocking FGFR-1(IIIc) binding to FGF-2): ~10 nM
B1: FR1-A1: antibody specific for FGFR-1(IIIc) and/or FGFR-4(IIIc); VH/VL SEQ ID NOS:15, 16 (antibody, listed as Homo sapiens, V domains shown)
VH: MAQVQLVQSGAEVKKPGSSVKVSCKASGQTFTGYYMHWVRQAPGQGLEWMGRIIPILGIANYAQKFQGRVTITADKSTSTAYMELSSLRSEDTAVYYCARGGDLGGMDVWGQG
VL: LEIVLTQSPLSLPVTPGEPASISCRSSQSLRHSNGYNYLDWYLQKPGQSPQLLIYLASNRASGVPDRFSGSGSGTDFTLKISRVEAEDVGVYYCMQALQIPPTFGPGTKVDIKRTVAA
- FGF-2 stimulated DNA synthesis (mitogenesis) of G18 cells [1]: decreased this stimulation in a dose-dependant manner
- body weight loss compared to the control ([2]; 2 mg/kg i.p.): ~9%
- reduction of non-fast food intake ([2]; 2 mg/kg): ~14%
- body weight loss compared to the control ([2]; 20 mg/kg i.p.): ~23%
- reduction of non-fast food intake ([2]; 20 mg/kg): ~44%
